Laboratory results from US20170145379.

Legend:
[1] = system: T1, 18-mer peptide PQLPYPQPQLPYPQPQPF
T1 sequence: PQLPYPQPQLPYPQPQPF

[2] = system: T2, 33-mer peptide LQLQPFPQPQLPYPQPQLPYPQPQLPYPQPQPF from α2-gliadin
T2 sequence: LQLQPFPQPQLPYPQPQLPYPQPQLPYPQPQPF

| Substance | Km (protease activity against 18-mer peptide) [1] | Vmax (protease activity against 18-mer peptide) (mg 18-mer peptide/ml) [1] | in vitro degradation of the peptide (protease activity) [2] |
| --- | --- | --- | --- |
| elongation factor G from Streptococcus thermophilus (strain P02638 F9 = DN_001343, CNCM I-2776), purified from culture supernatant | 0.794 mg 18-mer peptide/m1 | 1.5 | The protease able to degrade in vitro the 33-mer as well as the 18-mer peptide |
| elongation factor Tu from Lactobacillus casei (strain P02503 A1 = DN_114001, CNCM I-1518), purified from culture supernatant | 0.643 mg 18-mer peptide/ml | 1.27 | The protease able to degrade in vitro the 33-mer as well as the 18-mer peptide |
